Reference: publication PMC10890041

Molecular target: B8(RH)4 ligand: eightfold polymerized B domain from the native Protein A, C-terminally fused with th
Test: static batch adsorption on an affinity membrane; Protein A ligand coupled by NHS/EDC (protocol I) to ALA-functionalized ALA@Au_PES200 membrane (6 mm); Trastuzumab 0-0.5 mg/mL in PBS pH 7.4, 1 h, 25 °C, 1000 rpm; supernatant UV-vis at 280 nm, ligand load by direct BCA

**Q.** How did the stoichiometry N (antibody per Protein A ligand) turn out when Trastuzumab (antibody) was run?
**A.** Its stoichiometry N (antibody per Protein A ligand) is 3.
